Assay results reported in publication PMC2918618, “Characterization of the TnsD-attTn7 complex that promotes site-specific insertion of Tn7” (Mobile DNA, 2010).

Assays:
Assay in all cases: EMSA; Gel-shift buffer not given (as described in ref. 6); TnsD stored in 500 mM KCl, 50 mM Tris-HCl pH 8.0, 1 mM EDTA, 2 mM DTT, 25% glycerol
TnsD P417L = target: T1, TnsD P417L (Escherichia coli (transposon Tn7), UniProt P13991 1-508, P417L); details: protein: recombinant; tags: intein-chitin tag, cleaved with DTT
T1 sequence: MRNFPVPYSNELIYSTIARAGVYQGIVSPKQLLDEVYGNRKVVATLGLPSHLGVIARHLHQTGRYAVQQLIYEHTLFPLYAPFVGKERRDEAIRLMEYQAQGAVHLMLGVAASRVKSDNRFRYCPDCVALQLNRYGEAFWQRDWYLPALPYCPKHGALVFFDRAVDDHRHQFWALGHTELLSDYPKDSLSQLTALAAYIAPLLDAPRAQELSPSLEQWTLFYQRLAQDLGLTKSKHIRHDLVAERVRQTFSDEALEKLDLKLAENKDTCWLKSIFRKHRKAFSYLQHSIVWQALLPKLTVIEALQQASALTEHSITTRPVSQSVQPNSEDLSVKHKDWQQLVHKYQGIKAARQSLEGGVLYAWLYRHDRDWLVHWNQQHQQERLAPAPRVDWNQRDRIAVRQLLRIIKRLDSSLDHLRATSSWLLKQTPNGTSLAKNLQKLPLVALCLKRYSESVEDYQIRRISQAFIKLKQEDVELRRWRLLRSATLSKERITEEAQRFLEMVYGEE

TnsD C447Y = target: T2, TnsD C447Y (Escherichia coli (transposon Tn7), UniProt P13991 1-508, C447Y); details: protein: recombinant; tags: intein-chitin tag, cleaved with DTT
T2 sequence: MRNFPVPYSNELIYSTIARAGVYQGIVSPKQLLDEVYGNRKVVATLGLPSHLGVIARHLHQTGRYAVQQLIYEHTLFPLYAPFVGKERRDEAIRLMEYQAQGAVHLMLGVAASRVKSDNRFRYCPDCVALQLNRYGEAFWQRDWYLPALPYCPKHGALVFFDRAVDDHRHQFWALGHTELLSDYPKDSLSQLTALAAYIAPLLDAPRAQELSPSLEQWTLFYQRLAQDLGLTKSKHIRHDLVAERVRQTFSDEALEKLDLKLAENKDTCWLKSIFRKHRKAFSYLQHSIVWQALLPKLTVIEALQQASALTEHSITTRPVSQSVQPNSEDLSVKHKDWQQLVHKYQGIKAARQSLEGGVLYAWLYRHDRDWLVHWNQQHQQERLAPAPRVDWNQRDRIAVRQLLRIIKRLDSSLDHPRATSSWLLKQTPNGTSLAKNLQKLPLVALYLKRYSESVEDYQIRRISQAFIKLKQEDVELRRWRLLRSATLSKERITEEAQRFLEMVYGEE

TnsD Q340Z = target: T3, TnsD Q340Z (Escherichia coli (transposon Tn7), UniProt P13991 1-339); details: protein: recombinant
T3 sequence: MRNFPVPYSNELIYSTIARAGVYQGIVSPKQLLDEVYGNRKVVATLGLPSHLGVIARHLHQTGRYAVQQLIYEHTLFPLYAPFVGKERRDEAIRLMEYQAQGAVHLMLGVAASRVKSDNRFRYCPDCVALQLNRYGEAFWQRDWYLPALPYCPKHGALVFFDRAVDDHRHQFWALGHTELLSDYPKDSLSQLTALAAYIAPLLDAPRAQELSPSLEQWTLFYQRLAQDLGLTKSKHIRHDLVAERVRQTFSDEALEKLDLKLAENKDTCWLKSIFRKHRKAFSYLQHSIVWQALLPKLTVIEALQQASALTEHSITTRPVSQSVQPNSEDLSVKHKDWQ

TnsD P147L = target: T4, TnsD P147L (Escherichia coli (transposon Tn7), UniProt P13991 1-508, P147L); details: protein: recombinant; tags: intein-chitin tag, cleaved with DTT
T4 sequence: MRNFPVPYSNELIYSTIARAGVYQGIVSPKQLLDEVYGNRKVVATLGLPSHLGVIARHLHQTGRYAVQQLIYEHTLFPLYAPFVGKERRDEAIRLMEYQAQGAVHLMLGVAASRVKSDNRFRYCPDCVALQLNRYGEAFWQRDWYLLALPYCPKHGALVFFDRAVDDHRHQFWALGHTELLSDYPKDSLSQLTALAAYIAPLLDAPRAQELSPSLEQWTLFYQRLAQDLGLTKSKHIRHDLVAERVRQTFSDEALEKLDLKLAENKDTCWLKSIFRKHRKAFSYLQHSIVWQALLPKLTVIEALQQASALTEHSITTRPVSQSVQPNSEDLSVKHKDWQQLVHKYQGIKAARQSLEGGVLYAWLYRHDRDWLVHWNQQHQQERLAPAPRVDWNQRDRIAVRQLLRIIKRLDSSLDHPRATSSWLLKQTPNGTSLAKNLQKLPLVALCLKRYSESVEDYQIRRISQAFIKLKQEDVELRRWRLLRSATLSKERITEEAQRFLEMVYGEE

TnsD M96I = target: T5, TnsD M96I (Escherichia coli (transposon Tn7), UniProt P13991 1-508, M96I); details: protein: recombinant; tags: intein-chitin tag, cleaved with DTT
T5 sequence: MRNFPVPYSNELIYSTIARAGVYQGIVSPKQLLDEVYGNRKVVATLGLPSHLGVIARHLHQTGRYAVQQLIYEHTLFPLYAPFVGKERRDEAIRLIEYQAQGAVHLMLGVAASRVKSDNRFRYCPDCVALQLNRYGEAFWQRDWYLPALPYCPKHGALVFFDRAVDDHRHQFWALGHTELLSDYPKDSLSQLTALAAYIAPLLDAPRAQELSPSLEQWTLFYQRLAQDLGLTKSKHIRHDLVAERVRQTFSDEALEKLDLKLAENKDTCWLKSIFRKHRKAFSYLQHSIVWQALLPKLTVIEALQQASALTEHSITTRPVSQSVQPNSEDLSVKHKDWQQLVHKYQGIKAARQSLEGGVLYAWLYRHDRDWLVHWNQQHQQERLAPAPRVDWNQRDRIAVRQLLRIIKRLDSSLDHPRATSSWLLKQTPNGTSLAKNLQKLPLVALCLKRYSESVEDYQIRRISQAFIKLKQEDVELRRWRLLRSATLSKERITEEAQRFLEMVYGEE

B1: attTn7 wt (+23 to +58) (dsDNA)
DNA 1: CCGCGTAACCTGGCAAAATCGGTTACGGTTGAGTAA
DNA 2: TTACTCAACCGTAACCGATTTTGCCAGGTTACGCGG
binding signal (TnsD P417L): 0.07 relative to wt | binding signal (TnsD C447Y): 0.7 relative to wt | binding signal (TnsD Q340Z): < 0.05 relative to wt | binding signal (TnsD P147L): 0.07 relative to wt | binding signal (TnsD M96I): 0.3 relative to wt
